First the molecules themselves.
B1: library; numbered along this chain (parent)
chain: MAAAAAAAAEQQSSNGPVKKSMREKAVERRSVNKEHNSNFKAGYIPIDEDRLHKTGLRGRKGNLAICVIILLFILAVINLIITLVIWAVIRIGPNGCDSMEFHESGLLRFKQVSDMGVIHPLYKSTVGGRRNENLVITGNNQPIVFQQGTTKLSVENNKTSITSDIGMQFFDPRTQNILFSTDYETHEFHLPSGVKSLNVQKASTERITSNATSDLNIKVDGRAIVRGNEGVFIMGKTIEFHMGGNMELKAENSIILNGSVMVSTTRLPSSSSGDQLGSGDWVRYKLCMCADGTLFKVQVTSQNMGCQISDNPCGNTH

Variants of B1 are the subject of the data set. Nature of the data set: SGCB cell-surface expression functional score (HA stain, bin4 vs bin1, normalised to synonymous) (log10 ratio); higher = more cell-surface SGCB (functional). An outline of the steps:
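HEK293 cells stably expressing alpha-, gamma- and delta-sarcoglycan received codon-saturation libraries of HA-tagged, YFP-fused human beta-sarcoglycan by lentiviral transduction at MOI <0.1, performed in duplicate. Cells positive for YFP were sorted after 72 hours and cultured for 5–7 days, then stained on ice with Alexa Fluor 647 anti-HA and fixed. Fixed cells were sorted into four 5% intensity bins and amplicon-sequenced, and the log ratio of highest-bin to lowest-bin variant frequency, as a median over codons and transductions, gives the functional score. Per section, synonymous variants were scaled to mean 0, SD 0.5.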
For MAAAAAAAAEQQSSNGPVKKSMREKAVERRSVNKEHNSNFKAGYIPIDEDRLHKTGLRGRKGNLAICVIILLFILAVINLIITLVIWAVIRIGPNGCDSMEFHESGLLRFKQVSDMGVIHPLYKSTVGGRRNENLVITGNNQPIVFQQGTTKLSVENNKTSITSDIGMQFFDPRTQNILFSTDYETHEFHLPSGVKSLNVQKASTERITSNATSDLNIKVDGRAIVRGNEGVFIMGKTIEFHMGGNMELKAENSGILNGSVMVSTTRLPSSSSGDQLGSGDWVRYKLCMCADGTLFKVQVTSQNMGCQISDNPCGNTH [I255G], the “SGCB cell-surface expression functional score (log10)” value is -1.03. With MAAAAAAAAEQQSSNGPVKKSMREKAVERRSVNKEHNSNFKAGYIPIDEDRLHKTGLRGRKGNLAICVIILLFILAVINLIITLVIWAVIRIGPNGCDSMEFHESGLLRFKQVSDMGVIHPLYKSTVGGRRNENLVITGNNQPIVFQQGTTKLSVENNKTSITSDIGMQFFDPRTQNILFSTDYETHEFHLPSGVKSLNVQKASTERITSNATSDLNIKVDGRAIVRGNEGVFIMGKTIEFHMGGNMELKAENSQILNGSVMVSTTRLPSSSSGDQLGSGDWVRYKLCMCADGTLFKVQVTSQNMGCQISDNPCGNTH [I255Q], the “SGCB cell-surface expression functional score (log10)” value is -0.37.

Turning to MAAAAAAAAEQQSSNGPVKKSMREKAVERRSVNKEHNSNFKAGYIPIDEDRLHKTGLRGRKGNLAICVIILLFILAVINLIITLVIWAVIRIGPNGCDSMEFHESGLLRFKQVSDMGVIHPLYKSTVGGRRNENLVITGNNQPIVFQQGTTKLSVENNKTSITSDIGMQFFDPRTQNILFSTDYETHEFHLPSGVKSLNVQKASTERITSNATSDLNIKVDGRAIVRGNEGVFIMGKTIEFHMGGNMELKAENSCILNGSVMVSTTRLPSSSSGDQLGSGDWVRYKLCMCADGTLFKVQVTSQNMGCQISDNPCGNTH [I255C], the “SGCB cell-surface expression functional score (log10)” value was found to be 0.39. The same measure for MAAAAAAAAEQQSSNGPVKKSMREKAVERRSVNKEHNSNFKAGYIPIDEDRLHKTGLRGRKGNLAICVIILLFILAVINLIITLVIWAVIRIGPNGCDSMEFHESGLLRFKQVSDMGVIHPLYKSTVGGRRNENLVITGNNQPIVFQQGTTKLSVENNKTSITSDIGMQFFDPRTQNILFSTDYETHEFHLPSGVKSLNVQKASTERITSNATSDLNIKVDGRAIVRGNEGVFIMGKTIEFHMGGNMELKAENSNILNGSVMVSTTRLPSSSSGDQLGSGDWVRYKLCMCADGTLFKVQVTSQNMGCQISDNPCGNTH [I255N]: -1.5; for MAAAAAAAAEQQSSNGPVKKSMREKAVERRSVNKEHNSNFKAGYIPIDEDRLHKTGLRGRKGNLAICVIILLFILAVINLIITLVIWAVIRIGPNGCDSMEFHESGLLRFKQVSDMGVIHPLYKSTVGGRRNENLVITGNNQPIVFQQGTTKLSVENNKTSITSDIGMQFFDPRTQNILFSTDYETHEFHLPSGVKSLNVQKASTERITSNATSDLNIKVDGRAIVRGNEGVFIMGKTIEFHMGGNMELKAENSDILNGSVMVSTTRLPSSSSGDQLGSGDWVRYKLCMCADGTLFKVQVTSQNMGCQISDNPCGNTH [I255D]: -0.53. Turning to MAAAAAAAAEQQSSNGPVKKSMREKAVERRSVNKEHNSNFKAGYIPIDEDRLHKTGLRGRKGNLAICVIILLFILAVINLIITLVIWAVIRIGPNGCDSMEFHESGLLRFKQVSDMGVIHPLYKSTVGGRRNENLVITGNNQPIVFQQGTTKLSVENNKTSITSDIGMQFFDPRTQNILFSTDYETHEFHLPSGVKSLNVQKASTERITSNATSDLNIKVDGRAIVRGNEGVFIMGKTIEFHMGGNMELKAENSEILNGSVMVSTTRLPSSSSGDQLGSGDWVRYKLCMCADGTLFKVQVTSQNMGCQISDNPCGNTH [I255E], the “SGCB cell-surface expression functional score (log10)” value was -0.85. The figure for MAAAAAAAAEQQSSNGPVKKSMREKAVERRSVNKEHNSNFKAGYIPIDEDRLHKTGLRGRKGNLAICVIILLFILAVINLIITLVIWAVIRIGPNGCDSMEFHESGLLRFKQVSDMGVIHPLYKSTVGGRRNENLVITGNNQPIVFQQGTTKLSVENNKTSITSDIGMQFFDPRTQNILFSTDYETHEFHLPSGVKSLNVQKASTERITSNATSDLNIKVDGRAIVRGNEGVFIMGKTIEFHMGGNMELKAENSMILNGSVMVSTTRLPSSSSGDQLGSGDWVRYKLCMCADGTLFKVQVTSQNMGCQISDNPCGNTH [I255M] is 0.52; for MAAAAAAAAEQQSSNGPVKKSMREKAVERRSVNKEHNSNFKAGYIPIDEDRLHKTGLRGRKGNLAICVIILLFILAVINLIITLVIWAVIRIGPNGCDSMEFHESGLLRFKQVSDMGVIHPLYKSTVGGRRNENLVITGNNQPIVFQQGTTKLSVENNKTSITSDIGMQFFDPRTQNILFSTDYETHEFHLPSGVKSLNVQKASTERITSNATSDLNIKVDGRAIVRGNEGVFIMGKTIEFHMGGNMELKAENSVILNGSVMVSTTRLPSSSSGDQLGSGDWVRYKLCMCADGTLFKVQVTSQNMGCQISDNPCGNTH [I255V] it is 0.07; for MAAAAAAAAEQQSSNGPVKKSMREKAVERRSVNKEHNSNFKAGYIPIDEDRLHKTGLRGRKGNLAICVIILLFILAVINLIITLVIWAVIRIGPNGCDSMEFHESGLLRFKQVSDMGVIHPLYKSTVGGRRNENLVITGNNQPIVFQQGTTKLSVENNKTSITSDIGMQFFDPRTQNILFSTDYETHEFHLPSGVKSLNVQKASTERITSNATSDLNIKVDGRAIVRGNEGVFIMGKTIEFHMGGNMELKAENSSILNGSVMVSTTRLPSSSSGDQLGSGDWVRYKLCMCADGTLFKVQVTSQNMGCQISDNPCGNTH [I255S] it is -0.08. Regarding MAAAAAAAAEQQSSNGPVKKSMREKAVERRSVNKEHNSNFKAGYIPIDEDRLHKTGLRGRKGNLAICVIILLFILAVINLIITLVIWAVIRIGPNGCDSMEFHESGLLRFKQVSDMGVIHPLYKSTVGGRRNENLVITGNNQPIVFQQGTTKLSVENNKTSITSDIGMQFFDPRTQNILFSTDYETHEFHLPSGVKSLNVQKASTERITSNATSDLNIKVDGRAIVRGNEGVFIMGKTIEFHMGGNMELKAENSRILNGSVMVSTTRLPSSSSGDQLGSGDWVRYKLCMCADGTLFKVQVTSQNMGCQISDNPCGNTH [I255R], the “SGCB cell-surface expression functional score (log10)” value was -0.91.

The values are drawn from the supplement of paper PMC10266784.
